Reference: the nanobody polyreactivity screen of Harvey et al. (2022)

Test: yeast display, Sf9 membrane polyspecificity reagent, FACS + sequencing; frameworks hold sequencing errors
In short: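 Synthetic nanobody libraries on Saccharomyces cerevisiae BJ5465 were galactose-induced for 36–48 hours, stained 1 hour at 4 °C with 10% biotinylated, detergent-solubilized Sf9 membrane reagent and enriched on streptavidin microbeads. FACS then separated cells into low and high (top ~1%) gates by anti-HA (expression) and streptavidin (reagent binding) fluorescence. Genes were colony-PCR amplified, MiSeq 2 × 250 sequenced and CDR-length filtered. A clone's polyreactivity label is that of its gate of origin.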

| Sequence | polyreactivity (PSR sort gate) |
| --- | --- |
| QVQLVESGGGLVQAGGSLRLSRAASGFTFPAYTMGWYRQAPGKERELVAAITSSGGNTYYADSVKGRFTISRDNAKHTVYLQMNSLKPEDTAVYYCATVSVRWPSNDHVRYDYWGQGTQVTVSS | low polyreactivity |
| QVQLVESGGGLVQAGGSLRLSRAASGITFGFNAMGWYRQAPGKERELVAAITWSVGRTYYADSVKGRFTISRDNAKNTVYLQMNSLKPEDTAVYYCAKVFEAGDDYFAYDYWGQGTQVTVSS | low polyreactivity |
| QVQLVESGGGLVQAGGSLRLSRAASGRTFYGYAMGWYRQAPGKESELVARIRSGGSTNYADSVKGRFTISRDNAKNTVYLQMNSLIPEDTAVYYCAARPGAAGYKYYYWGQGTQVTVSS | high polyreactivity |
| QVQLVESGGGLVQAGGSLRLSSAASAFIFSSYAMGWYRQAPWKERELVAAITRNGGSTYYADSVKGRFTISRDNAKNTVYLQMNSLKPEDTAVYYCAAQRWRGVGRFDYWGQGTQVTVSW | high polyreactivity |
| QVQLVESGGGLVQAGGSLRLSSAASAGIFAPNAMGLYRQAPGTEREFVAAISTGGGSTRYADSVKGRFTISRDNAKNTVYLQMNSLKPEDTAVYYCAATRVGVRRMDYWGQGTQVTVSS | low polyreactivity |
| QVQLVESGGGLVQAGGSLRLSSAASGFIFQSYAMGWYRQAPGKERELVAAISASGGRTYYADSVKGRFTISRDNAKNTVYLQMNSLKPEDTAVYYCAAYRSYWAVYPRMYYWGQGTQVTVSS | high polyreactivity |
| QVQLVESGGGLVQAGGSLRLSSAASGFTFYYNAMGWYRQAPGKERELVAAITRTGSTNYADSVKGRFTISRDNAKNTVYLQMNSLKPEDTAVYYCAKTYRRTNWGTYDYWGQGTQVTVSS | high polyreactivity |
| QVQLVESGGGLVQAGGSLRLSSAASGFTSSRNAMGWYRQAPGKERELVATISSGGDTYYADSVKGRFTISRDNAKNTVYLQMNSLKPEDTAVYYCATDRAERTGYTRYVKTYNYWGQGTQVTVSS | low polyreactivity |
| QVQLVESGGGLVQAGGSLRLSSAASGGIFRIYGMGSYRQAPGKERELVADISIGGRTTYADSVKGRFTISRDNAKNTVYLQMHSLKPEDTAVYYCKTPYWYRIGQRLAWYDYWGQGTQVTVSS | low polyreactivity |
| QVQLVESGGGLVQAGGSLRLSSAASGGTFDPYAMGWYRQAPGKERELVAAISDGRRTYYADSVKGRFTISRDNAKNSVYLLMNSRNTEETAVYYFDKCRLTSRICYYWWSAYHPSDYWGQGTQVSVSS | low polyreactivity |
| QVQLVESGGGLVQAGGSLRLSSAASGIIFITYAMGWYRQAPGKDRELVAVISFSGGGTYADSVKGRFTISRDNAKNTVYLQMNSLKPEDTAVYYCAARRHSVGDYWLIYDYWGQGTQVTVSS | low polyreactivity |
| QVQLVESGGGLVQAGGSLRLSSAASGIIFYNYAMGWDRQAPGKEWEFVAAISWSGGSTNYADSVKGRFTISRDTAKNTVDLQMNSLQPEDTAVYYCAAEYYGWYYGREAYWGQGTQVTVSS | low polyreactivity |
| QVQLVESGGGLVQAGGSLRLSSAASGINLEYYAMGWSRQAPGKERELVAAIDSTDGSTYYADSVKGRFTISRDNAKNTVYLQLNSLKPEDTAVYYWNVVVSWPLSLLRRDYWGQGTQVTVSS | low polyreactivity |
| QVQLVESGGGLVQAGGSLRLSSAASGITFCRNTMGWYRQAPGKERELVAAIDSGGNTYADSVKGRFTISRDNAKNTVNLHINSLKPEYTAVYYCAKDSGPRGSYGYAFDSWGQGTQVTVSS | low polyreactivity |
| QVQLVESGGGLVQAGGSLRLSSAASGITFDIYDMGWYRQAPGKERELVAAISYSGGSTYYADSVKGRFTISRDNAKNTVYLQMNSLTPEDTAVYDCAAAWYYNSDNEFDYWGQGTQVTVSS | low polyreactivity |
| QVQLVESGGGLVQAGGSLRLSSAASGITFITYAMVWYRQAPGKERELVAAISSSGGSTYYADSVKGRFTFSRDNAKNTVYLKMNSLKPEDTAVYYCAAEYVWYFGWKYGYWGQGTQVTVSS | high polyreactivity |
| QVQLVESGGGLVQAGGSLRLSSAASGITFKYYVMGWYRQAPGKEREFVAAISWGGGSTYYADSVKGRFTISRDNAKITVYLQMNSLKPEDTAVYYCATSHGLYTRWYDYWGQGTQVTVSS | high polyreactivity |
| QVQLVESGGGLVQAGGSLRLSSAASGITFPWYAMGWSRQAPGKERELVAAISRSGGSTYADSVKGRFTISRDNAKNTVYLQMNSLKPEDTAVYYCAAGTYSGSRFDYWGQGTQVTVSS | high polyreactivity |
| QVQLVESGGGLVQAGGSLRLSSAASGITFVWNAMGWYRQAPGKERELVATISRGGVRTYYADSVKGRFTISRDNAKNTVYLQMNSLKQEDTAVYYCAADGSYVHWEYGYWGQGTQVTVSS | low polyreactivity |
| QVQLVESGGGLVQAGGSLRLSSAASGLIFSVYAMGWYRQAPGKERELVAAISSRGGTTYYADSVKGRFTISRDNAKNTVYLQMNSLKPEDTAVYYCAARSWSYTYDYWGQGTQVTVSS | high polyreactivity |
| QVQLVESGGGLVQAGGSLRLSSAASGLTFINYDMGWYRQAPAKERELVAAISQIGTSTYYADSVKRRFTISRDNAKNTVYLQMNSLKPEDTAVYYCAAEFPTVYIPWSEMDYWGQGTQVTVSS | high polyreactivity |
| QVQLVESGGGLVQAGGSLRLSSAASGLTFSDYAMAWYRQAPGKERELVAGISSGGSTYYADSVKGRFTISRDNAKNTVYLQMNSLKPEDTAVYYCAATRYNRWPIKFDYWVQGTQVTVSS | high polyreactivity |

| Sequence | polyreactivity (PSR sort gate) |
| --- | --- |
| QVQLVESGGGLVQAGGSLRLSSAASGNTFRHYAMGRYRQAPGKERELVAAISYSGGSTYYADSVKGRFTISRDNAKNTVYLQMNSLKPEDTAVYYCAAYSYASYGVSGYYYWGQGTQVTVSS | high polyreactivity |
| QVQLVESGGGLVQAGGSLRLSSAASGRIFGHYAMGWYRQAPGKERELVAAISRSGTRTYYADSVKGRFTISRDNAKNTVYLQMNSLKPEDTAVYYCAAYTYKGIYYYWGQGTQVTVSS | high polyreactivity |
| QVQLVESGGGLVQAGGSLRLSSAASGRIFKGNAMGWYRQAPGKERELVAAISKRGGSTHYADSVKGRFTISRDNSKNTVYLQMNSLKPEDTAVYYCATDSYYVGAVHYYYWGQGTQVTVSS | high polyreactivity |
| QVQLVESGGGLVQAGGSLRLSSAASGRIFPRYAMGWYSQAPGKERELVAAISGSGGGTYYADSVKGRFTISRDNAKNTVYLQMNSLKPEDTAVYYCAAVATQEKYDYWGQGTQVTVSS | low polyreactivity |
| QVQLVESGGGLVQAGGSLRLSSAASGRIFRGYTMGCSRQAPGKDRELVAAISRSGTRTYYADSVKGRFPISRDNAKNTGYLQMNSLTPEDTAVYDCAVDSTTAGTGMGYWGQGTQVTVSS | high polyreactivity |
| QVQLVESGGGLVQAGGSLRLSSAASGRIFWAYLMGRYRQAPGKERELVATIRWRGGSTYYADSVKGRFTISRDNAKNTFYLQMIRLKLEDTAVYYCNADRYSRISPTRYDYWGQGTQVTVSS | high polyreactivity |
| QVQLVESGGGLVQAGGSLRLSSAASGRIFYRYTMGWYRQAPGKERELVAAITRGSTNYADSVKGRFTISRDNAKNTVYLQMNSLKPDDTAVYYWAKAYSRTDRFSSPYYYYWGQGTQVTVSS | high polyreactivity |
| QVQLVESGGGLVQAGGSLRLSSAASGRISGYNMGWYRQAPGKERELVAAISNGGSTNYADSVKGRFTISRDNAKNTVYLQMNSLKPEDTAVYYCNRRVPYSFYSRGYYYWGQGTQVTVSS | high polyreactivity |
| QVQLVESGGGLVQAGGSLRLSSAASGRNYPKYAMGSYRQAPGKERELVAAISQRGGSTYYADSVKGRFTISRDNAKNTVYLQMNSLKPEDTAVYYCAASYYRQSGEYDYWGQGTLVTVSS | low polyreactivity |
| QVQLVESGGGLVQAGGSLRLSSAASGRTFGGYAMGWYRQAPGKERELVAAISWTGGSTYDADSVKGRFTISRDNAKNTVYLQMNSLKPEDTAVYYCNRDVGRNYQGPEYYYWGQGTQVTVSS | low polyreactivity |
| QVQLVESGGGLVQAGGSLRLSSAASGRTFHRNAMGWYRQAPGKERELVAAITGDGRTNYADSVKGRFTISRDNAKNTVYLQMNSLKPEDTAVYYCAARFSYRSYDYWGQGTQVTVSS | low polyreactivity |
| QVQLVESGGGLVQAGGSLRLSSAASGRTFKYYGLGWYRQPPGKESQLVATISRSSSRTYYADSVKGRFTISRDNAKNTVYFKMNSLKPEDSAVYYCASLAPRSYDYDYWGKGTQVTVSS | high polyreactivity |
| QVQLVESGGGLVQAGGSLRLSSAASGRTFQDNAMGSYRQAPGKERELVAAISWRGGSTNYADSVKGRFTISRDNAKNTVYLQMNSLIPEDTAVYYCNRDPRKYGKLDYWGQGTQVTVSS | low polyreactivity |
| QVQLVESGGGLVQAGGSLRLSSAASGRTFRYYAMRWYRQAPAKERELVAAINRGGSTYYGDSVKGRFTISRDNAKNTVYLQMNSLKPVDTAVYYCNVDKYRIVGFHTPYDYWGQGTQVTVSS | high polyreactivity |
| QVQLVESGGGLVQAGGSLRLSSAASGRTFYANAMGWYRQAPRKERELVAAISSGGITNYADSVKGRFTISRDNAKNTVYLQMNSLKPEDTAVYYCPYDYWGQGTQVTVSS | low polyreactivity |
| QVQLVESGGGLVQAGGSLRLSSAASGRTFYLYAMGWYRQAPGKAMELVAAISRSGGITYYADSVKGRFTISRDNAKNTVYLQMNSLKPEDTGVYYCAASRAGGYYGKGYSWGQGSQVTVSS | high polyreactivity |
| QVQLVESGGGLVQAGGSLRLSSAASGRTFYVNAMGWYRQAPGKERELVAAITRSSGSTHYADSVKGRFTISRDNAKNTVYLQMNSLKPEDTAVYYCAADSTYRKYYYWGQGTQVTVSS | high polyreactivity |
| QVQLVESGGGLVQAGGSLRLSSAASGSIFDSNALGWYRQARGKERELVAAISLSGGSTYYADSVKGRFTISRDNAKNTVYLQMKSLKPEDTAVYYCAKDGWYEYYWGQGTQVTVSS | low polyreactivity |
| QVQLVESGGGLVQAGGSLRLSSAASGSIFGSNAMGWSRQAPGKERELVATITTSGGITYYADSVKGRFTISRDNAKNTVYLQMTSLKPEDTAVYYCAAAEGGGLVTYDYWGQGTQVTVSS | low polyreactivity |
| QVQLVESGGGLVQAGGSLRLSSAASGSIFGYAMGCDRHAPGKERELVASTTYADSVKGRFTISRDNAKNTVYLQMNSLKPEDTAVYYCAAEDRPLYWRFPDEMDYWGQGTQVTVSS | low polyreactivity |
| QVQLVESGGGLVQAGGSLRLSSAASGSIFGYNAIGWYRQAPGKERELVAAISYSGGRTYYADSVKGRFTISRDNAKNTVYLQMNCLKAEDTAVYYCAKVLQYRTFYTGYDYWGQGTQVTVSS | high polyreactivity |
